Assay results reported in PMC12724383.

What was measured:
Details in all cases: 50 mM HEPES, 150 mM NaCl, 10% glycerol (pH not given for the reactions; protein storage buffer pH 7.5), room temperature, 15 min (EMSA) or 40 min …
[1] = system: T1, DbuR (Pseudomonas putida), ORF:fe707e5d; test: competition EMSA
T1 sequence: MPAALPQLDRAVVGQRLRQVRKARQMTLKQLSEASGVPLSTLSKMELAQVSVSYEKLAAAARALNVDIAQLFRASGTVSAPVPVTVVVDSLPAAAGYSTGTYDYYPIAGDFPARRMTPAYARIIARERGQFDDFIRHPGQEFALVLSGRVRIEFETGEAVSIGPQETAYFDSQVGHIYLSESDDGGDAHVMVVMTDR

[2] = system: T1, DbuR (Pseudomonas putida), ORF:fe707e5d; test: EMSA
[3] = system: T1, DbuR (Pseudomonas putida), ORF:fe707e5d; test: DNase I footprinting

Sequence: TCAGGGATCTCGGCATGCGGCGGTGGTCGGGCATCTTACCTTGGACCCTTGCGCATTTCTAAATTCTCATATATTAGAATTCTCATAAATGATAATTGCCTGGCAGGAGCGTGCATGACCCCGACCTACGACA (double strand) [Pdbu 133 bp, unlabeled]
- binding [1]: binds

Sequence: TCAGGGATCTCGGCATGCGGCGGTGGTCGGGCATCTTACCTTGGACCCTTGCGCATTTCTAAATTCTCATATATTAGAATTCTCATAAATGATAATTGCCTGGCAGGAGCGTGCATGACCCCGACCTACGACA (double strand) [Pdbu 133 bp, 5'-FAM]
- binding [2]: binds

Sequence: TCAGGGATCTCGGCATGCGGCGGTGGTCGGGCATCTTACCTTGGACCCTTGCGCATTTCTAAATTCTCATATATTAGAATTCTCATAAATGATAATTGCCTGGCAGGAGCGTGCATGACCCCGACCTACGACA (double strand) [Pdbu 133 bp, 5'-FAM/5'-HEX]
- binding [3]: binds
